In patent publication US20210171621A1 (SUNSHINE GUOJIAN PHARMACEUTICAL SHANGHAI, published 2021):

T1: rabbit IL-5 with His-tag (rabbit, UniProt G1SL79 20-134)
T1 construct: Expressed transiently in HEK293E and captured from the supernatant by a murine anti-His antibody
T1 sequence: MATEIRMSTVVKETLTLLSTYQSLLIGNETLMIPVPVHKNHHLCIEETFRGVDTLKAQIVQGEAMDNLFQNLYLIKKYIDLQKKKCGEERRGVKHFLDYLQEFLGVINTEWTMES

T2: rat IL-5 with His-tag (rat, UniProt Q08125 20-132)
T2 construct: Expressed transiently in HEK293E and captured from the supernatant by a murine anti-His antibody; not shown: His-tag
T2 sequence (looked up): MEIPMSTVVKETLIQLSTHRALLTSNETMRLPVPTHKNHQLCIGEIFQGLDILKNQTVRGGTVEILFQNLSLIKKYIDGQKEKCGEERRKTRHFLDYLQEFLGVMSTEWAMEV

T3: mouse IL-5 with His-tag (mouse, UniProt P04401 21-133)
T3 construct: Expressed transiently in HEK293E and captured from the supernatant by a murine anti-His antibody; not shown: His-tag
T3 sequence (looked up): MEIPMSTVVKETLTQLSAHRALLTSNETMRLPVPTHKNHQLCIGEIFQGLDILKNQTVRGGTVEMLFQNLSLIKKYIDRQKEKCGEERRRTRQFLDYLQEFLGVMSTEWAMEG

T4: guinea pig IL-5 with His-tag (guinea pig, UniProt O08987 20-135)
T4 construct: Expressed transiently in HEK293E and captured from the supernatant by a murine anti-His antibody; not shown: His-tag
T4 sequence (looked up): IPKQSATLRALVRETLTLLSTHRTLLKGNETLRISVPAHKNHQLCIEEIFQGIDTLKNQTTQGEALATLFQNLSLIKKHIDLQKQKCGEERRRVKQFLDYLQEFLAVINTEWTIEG


Tests used:
rabbit IL-5 with His-tag = biological target: T1, rabbit IL-5 with His-tag; assay: ELISA, His-tagged IL-5 captured by anti-His antibody
From the text: (§1) IL-5 genes of rat, mouse, guinea pig and rabbit were synthesized and constructed into the pTT5 transient vector, respectively (All the sequences of the above genes are from http://www.uniprot.org, the mouse number is P04401, the rat number is Q08125, the guinea pig number is O08987, and the rabbit number is G1SL79), and then transiently expressed in HEK293E.

rat IL-5 with His-tag = biological target: T2, rat IL-5 with His-tag; assay: ELISA, His-tagged IL-5 captured by anti-His antibody; rat
From the text: as §1

mouse IL-5 with His-tag = biological target: T3, mouse IL-5 with His-tag; assay: ELISA, His-tagged IL-5 captured by anti-His antibody; mouse
From the text: as §1

[1] = biological target: T4, guinea pig IL-5 with His-tag; assay: ELISA, His-tagged IL-5 captured by anti-His antibody; guinea pig
From the text: as §1

[2] = biological target: T5, human IL-5 protein (purchased from Beijing Yiqiao Shenzhou) (human, UniProt P05113 20-134); assay: cell-based or functional assay
[3] = biological target: T5, human IL-5 protein (purchased from …); assay: SPR Biacore T200, antibody captured on Protein A/G, IL-5 as analyte
From the text: The specific experimental method was as follows: A CM5 sensor chip (GE healthcare) was activated with a Amine Coupling Kit (GE healthcare) and the Protein A/G fusion protein (Thermo Pierce) was immobilized on the chip with an lable amount of 2000 RU. FC3 (Flow cell 3) was a reference channel, and FC4 (Flow cell 4) was a sample channel.

human IL-5-hFc [4] = biological target: T6, human IL-5-hFc (human, UniProt P05113 20-134); assay: competition ELISA: IL-5-hFc coated, biotinylated IL-5RA-ECD-hFc as competitor
T6 construct: not shown: Fc segment of human IgG1
Protocol: (§2) After incubation for a period of time, the plate was washed and Streptavidin-HRP was added finally for color development detection.

human IL-5-hFc [5] = biological target: T6, human IL-5-hFc; assay: blocking ELISA: plate coated with IL-5-hFc, antibody dilutions mixed with biotinylated IL-5RA-ECD-hFc (the blocked ligand), Streptavidin-HRP, OD450
Protocol: as §2

[6] = biological target: T7, human IL-5-His-tag antigen (human, UniProt P05113 20-134); assay: ELISA, His-tagged IL-5 captured by anti-His antibody; human
T7 construct: Made in HEK293

[7] = biological target: T8, IL-5 mutant 86C to Alanine, with His-tag (human, UniProt P05113 20-134); assay: capture ELISA: His-tagged IL-5 from HEK293E supernatant captured with murine anti-His antibody, detected with Goat-anti-Human-Fc-Specific-HRP; mean of four wells
T8 construct: Expressed transiently in HEK293E; used from the supernatant, captured by a murine anti-His antibody; not shown: His-tag

[8] = biological target: T9, IL-5 mutant 90R to Alanine, with His-tag (human, UniProt P05113 20-134); assay: as above
T9 construct: Expressed transiently in HEK293E; used from the supernatant, captured by a murine anti-His antibody; not shown: His-tag

[9] = biological target: T10, IL-5 mutant 91R to Alanine, with His-tag (human, UniProt P05113 20-134); assay: as above
T10 construct: Expressed transiently in HEK293E; used from the supernatant, captured by a murine anti-His antibody; not shown: His-tag

[10] = biological target: T11, IL-5 mutant 96F to Alanine, with His-tag (human, UniProt P05113 20-134); assay: as above
T11 construct: Expressed transiently in HEK293E; used from the supernatant, captured by a murine anti-His antibody; not shown: His-tag

[11] = biological target: T12, IL-5 mutant 104L to Alanine, with His-tag (human, UniProt P05113 20-134); assay: as above
T12 construct: Expressed transiently in HEK293E; used from the supernatant, captured by a murine anti-His antibody; not shown: His-tag

| Binder | EC50 (rat IL-5 with His-tag) | EC50 (mouse IL-5 with His-tag) | EC50 [1] | Kd [3] | koff [3] | kon [3] | further results |
| --- | --- | --- | --- | --- | --- | --- | --- |
| humanized antibody No. 4-6 (4-6-Humanized) (antibody, human IgG1, kappa, V domains shown, Human IgG1; Made in HEK293; also called 4-6-Humanized (293); 4-6-Humanized (CHO)) VH: QVQLVQSGAEVKKPGASVKVSCKASGYTFTNHHINWVRQAPGQGLEWIGYINPYNDYSRYNQKFKGRATLTVDKSTSTAYMELSSLRSEDTAVYYCARDYGNFWYFDVWGQGTLVTVSS VL: DIQMTQSPSSLSASVGDRVTITCKASQDINSYLSWIQQKPGKAPKTLIHRADRLIDGVPSRFSGSGSGQDFTLTISSLQPEDFATYYCLQYDDFPYTFGQGTKVEIKR | 2.13 µg/mL | 0.0521 µg/mL | 0.0558 µg/mL | – | – | – | binding result (rabbit IL-5 with His-tag): no binding |
| control antibody 4-4-Humanized (antibody, human IgG1, V domains shown) VH: QVQLVQSGAEVKKPGASVKVSCKASGYTFTDYYINWLRQAPGQGLEWIGWIYPGSGNTKYSEKFKDRATLTVDTSTSTVYMELSSLRSEDTAVYVCVRDGYYWYFDVWGQGTLVTVSS VL: DIVMTQSPDSLAVSLGERATINCKSSQSLLNNYNQKNYLAWYQQKPGQPPKLLVYFTSTRESGVPDRFSGSGSGTDFTLTISSLQAEDVAVYFCQQHYSPPFTFGQGTKVEIK | – | – | – | – | – | – | IC50 (read off the curve) (human IL-5-hFc [5]): ~4 µg/mL |

The next lines start with results.

| EC50 (rat IL-5 with His-tag) | EC50 (mouse IL-5 with His-tag) | EC50 [1] | Kd [3] | koff [3] | kon [3] | Binder | further results |
| --- | --- | --- | --- | --- | --- | --- | --- |
| – | – | – | 0.013 nM | 0.000196 s⁻¹ | 1.51e+07 M⁻¹ s⁻¹ | chimeric antibody No. 4-6 (4-6-Chimeric) (antibody, human IgG1, V domains shown) VH: QVQLQQSGAELVRPGASVKISCKAFGYTFTNHHINWVQQRPGQGLDWIGYINPYNDYSRYNQKFKGKATLTVDKSSSTAYMELSGLTSEDSAVYYCARDYGNFWYFDVWGAGTTVTVSS VL: DIKMTQSPSSMYASLGERVTITCKASQDINSYLSWIQQKPGKSPKTLIHRADRLIDGVPSRFSGSGSGQDFSLTISSLEYEDMGIYYCLQYDDFPYTFGGGTKLEIK | IC50 for inhibiting IL-5-induced TF-1 cell proliferation (4-6-Chimeric) [2]: 0.0289 µg/mL; IC50 (human IL-5-hFc [4]): 0.98 µg/mL |
| 0.132 µg/mL | 0.0618 µg/mL | 0.0531 µg/mL | 0.0136 nM | 0.000156 s⁻¹ | 1.15e+07 M⁻¹ s⁻¹ | hu39D10 (antibody, V domains shown) VH: EVQLVESGGGLVQPGGSLRLSCAVSGLSLTSNSVNWIRQAPGKGLEWVGLIWSNGDTDYNSAIKSRFTISRDTSKSTVYLQMNSLRAEDTAVYYCAREYYGYFDYWGQGTLVTVSS VL: DIQMTQSPSSLSASVGDRVTITCLASEGISSYLAWYQQKPGKAPKLLIYGANSLQTGVPSRFSGSGSATDYTLTISSLQPEDFATYYCQQSYKFPNTFGQGTKVEVKR | IC50 for inhibiting IL-5-induced TF-1 cell proliferation (hu39D10) [2]: 0.0476 µg/mL; EC50 [6]: 0.078 µg/mL; OD450 [7]: 0.13; OD450 [8]: 0.499; OD450 [9]: 0.171; OD450 [10]: 0.456; OD450 [11]: 0.11 |
